# Results as given in US20140120082A1.
# Legend:
# [1] = target: 8.3 TcR; assay: tetramer staining of 8.3 TcR-transgenic NOD CD8+ T cells, flow cytometry
# [2] = target: human NKG2D (human) (UniProt P26718); assay: cell-based or functional assay
# [3] = target: human NKG2D (human) (UniProt P26718); assay: flow cytometry on NKL cells stained on ice with biotinylated mAb, APC-streptavidin before culture (0 h)
# [4] = target: human NKG2D (human) (UniProt P26718); assay: flow cytometry on NKL cells stained on ice with biotinylated mAb, APC-streptavidin after 16 h of culture at 37° C
# Chain of UniProt P26718 (P26718 whole entry T72A): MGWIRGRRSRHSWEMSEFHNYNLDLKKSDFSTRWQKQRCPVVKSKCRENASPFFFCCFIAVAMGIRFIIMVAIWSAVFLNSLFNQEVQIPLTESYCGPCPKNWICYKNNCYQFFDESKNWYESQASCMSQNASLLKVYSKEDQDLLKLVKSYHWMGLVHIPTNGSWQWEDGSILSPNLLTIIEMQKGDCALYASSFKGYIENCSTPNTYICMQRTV
percent of donor CD8+ T cells tetramer positive [1],decrease in expression of NKG2D on the cell surface [2],mean fluorescence intensity (arbitrary units) [3],mean fluorescence intensity (arbitrary units) [4],Substance
> 90%,,,,NRP-V7/H-2K^d tetramer (from UniProt P01902 22-305) (peptide-MHC)
,67%,186,61,mouse anti-human NKG2D mAb (R&D Systems clone 149810) (antibody)
